Test system: Bacillus subtilis
Test: cleaved RNA product abundance (RNA/gDNA barcode ratio) relative to median wild-type variant (ratio to wild type); higher = more accumulation of the downstream cleavage product
In short: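 Truncated aprE or tetM reporter mRNAs with barcoded RNase Y cleavage-site windows, mutagenized from oligos at a 9% error rate, sat in the B. subtilis chromosome. Cells grew in LB at 37°C from OD600 0.0003 to 0.3. Gel-selected cleaved RNA was reverse transcribed and its barcodes sequenced with those from genomic DNA, collapsing by UMI. Cleaved product abundance equals the RNA:gDNA barcode ratio per construct over the median construct with the unmutated site.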

[1] = experiment (reporter, strain, medium): exp 4a: truncated aprE reporter, strain BJT201 with 2% xylose (RNase J1 expressed), cleavage site: cggR-gapA (positions -7 to +36 mutated)
[2] = experiment (reporter, strain, medium): exp 2b: truncated aprE reporter, strain BJT200, cleavage site: cggR-gapA (positions -7 to +36 mutated)
[3] = experiment (reporter, strain, medium): exp 8a: truncated aprE reporter, strain BJT201 with 2% xylose (RNase J1 expressed), cleavage site: glnRA (positions -5 to +31 mutated)

| Sequence | cleaved RNA product abundance [1] | cleaved RNA product abundance [2] | other results |
| --- | --- | --- | --- |
| ACAGACGAAGGAGCCGCAAAGAAGTTATTAAGGGATGAATAATACCTCAATATAAATATCTCTCACTTATTAAAG | 0.148 | – | – |
| ACAGACGAAGGAGCCGCAAAGTAGTTATTAAGGGATGAATAATCTCTCAATATAAATATCTCTCACTTATTTAAA | 0.802 | – | – |
| ACAGACGAAGGAGCCGCAAAGAAGTTATAAAGGGATGAATAATCCCTCAATATTAATATCTCTCACTTATTTAAA | 0.105 | – | – |
| ACAGACGAAGGAGCCGCAAAGGAGTTATTAAGGGATGAATAATCCCTCAATAAAAATATCTCTCACTTATTTAAA | – | 0.165 | – |
| ACAGACGAAGGAGCCGCAAAGAAGGTATTAAGGGATGAATAATCCCCCAATATAAATATCTCTCACTTATTTAAA | 0.378 | – | – |
| ACAGACGAAGGAGCCGCAAAGAAGTTATTAAGGAATGAATAATCCGTCAATATAAATATCTCTCACTTATTTAAA | 0.0653 | 0.0733 | – |
| ACAGACGAAGGAGCCGCAAAGAAATTATTAAGGGATCAATAATCCCTCAATATAAATATCTCTCACTTATTTAAA | – | 0.646 | – |
| ACAGACGAAGGAGCCGCAAAGAAGTTTTTAAGTGATGAATAATCCCTCAATATAAATATCTCTCACTTATTTAAA | 0.0945 | 0.117 | – |
| ACAGACGAAGGAGCCGCGAAGAAGTTATTAAGGGATTAATAATCCCTCAATATAAATATCTCTCACTTATTTAAA | 1.19 | – | – |
| CGACATGTCCCGCTTCTTTCATTAATCCGATAGCAACTGTTTTGCTATATACATTTAACTTTTAAGAGGAGGAAT | – | – | cleaved RNA product abundance [3]: 0.63 |
| ACAGACGAAGGAGCCGCAAAGAAGTTATTAAGTGATGAATAATCCCTGAATATAAATATCTCTCACTTATTTAAA | 0.0547 | 0.0871 | – |
| ACAGACGAAGGAGCCGCTAAGAAGTTATTAATGGATGAATAATCCCTCAATATAAATATCTCTCACTTATTTAAA | 0.172 | – | – |
| CGACATGTCCCGCTTCTTTCATTAATCCGTTAGCAACTCTTTTGATATATACATTTACCTTTTAAGAGGAGGAAT | – | – | cleaved RNA product abundance [3]: 0.51 |
| CGACATGTCCCGCTTCTTTCATTATTCTGTTAGCAACTGTTTTGCTATATACATTTACCTTTTAAGAGGAGGAAT | – | – | cleaved RNA product abundance [3]: 1.94 |
| CGACATGTCCCGCTTCTTTCATTAATCCATTAGCAACTGTTTTGCTATATACATATACCTTTTAAGAGGAGGAAT | – | – | cleaved RNA product abundance [3]: 0.929 |
| ACAGACGAAGGAGCCGCAAAGAAGTTATTAAGTGATGAATAGTCCCTCAATATAAATATCTCTCACTTATTTAAA | 0.14 | – | – |
| CGACATGTCCCGCTTCTTTCATTAATCCGTTAGCAACTTTTTTGCTATATACATTTACCTTTTAAGAGGAGGAAT | – | – | cleaved RNA product abundance [3]: 1.24 |
| CGACATGTCCCGCTTCTTTCATTAATCCGTTATCAACTGTTTTGCTATATACATTTATCTTTTAAGAGGAGGAAT | – | – | cleaved RNA product abundance [3]: 0.347 |
| ACAGACGAAGGAGCCGCAAAGAGGTTATTAAGGGATAAATAATCCCTCAATATAAATATCTCTCACTTATTTAAA | 0.62 | – | – |
| ACAGACGAAGGAGCCGCAAAGAAGTTAGTAAGGGATGAATAATCCTTCAATATAAATATCTCTCACTTATTTAAA | – | 0.29 | – |

| Sequence | cleaved RNA product abundance [1] | cleaved RNA product abundance [2] | other results |
| --- | --- | --- | --- |
| ACAGACGAAGGAGCCGCAAAGAAGTGATTAAGGGATTAATAATCCCTCAATATAAATATCTCTCACTTATTTAAA | 0.325 | 0.459 | – |
| ACAGACGAAGGAGCCGCAAATAAGTTATTAAGGGATGAATAATCCCTCAATATAAATATATCTCACTTATTTAAA | 0.814 | – | – |
| CGACATGTCCCGCTTCTTTCATTAATCCGTTTGCAACTGTTTTGCTATATACATTTACTTTTTAAGAGGAGGAAT | – | – | cleaved RNA product abundance [3]: 0.552 |
| ACAGACGAAGGAGCCGCAAAAAAGTTATTAAGGGATGAATCATCCCTCAATATAAATATCTCTCACTTATTTAAA | 1.01 | – | – |
| CGACATGTCCCGCTTCTTTCATTAATCCGTTAGCAAATGTTTTGCAATATACATTTACCTTTTAAGAGGAGGAAT | – | – | cleaved RNA product abundance [3]: 0.304 |
| ACAGACGAAGGAGCCGCAAAGAATTTATTAAGGGATGAATAATCCATCAATATAAATATCTCTCACTTATTTAAA | 0.269 | 0.204 | – |
| ACAGACGAAGGAGCCGCAAAGAAGTTATTAAGGGATGAATAATCCTTCAATATAAATAACTCTCACTTATTTAAA | 0.935 | 0.395 | – |
| ACAGACGAAGGAGCCGCAAAGAAGTTATTAAGGGATGAATTATCCCTCAATATAAAAATCTCTCACTTATTTAAA | 0.966 | – | – |
| ACAGACGAAGGAGCCGCAAAGAAGTAATTAAGGGTTGAATAATCCCTCAATATAAATATCTCTCACTTATTTAAA | 0.162 | 0.0812 | – |
| ACAGACGAAGGAGCCGCAAAGAAGTTGTTCAGGGATGAATAATCCCTCAATATAAATATCTCTCACTTATTTAAA | 0.446 | – | – |
| CGACATGTCCCGCTTCTTTCATTAATCCCTTAGCAACTGTTTTGCTATATACTTTTACCTTTTAAGAGGAGGAAT | – | – | cleaved RNA product abundance [3]: 0.166 |
| ACAGACGAAGGAGCCGCAAAGAAGTTATTATGTGATGAATAATCCCTCAATATAAATATCTCTCACTTATTTAAA | 0.131 | – | – |
| CGACATGTCCCGCTTCTTTCATTAATCCGTTAGTAAATGTTTTGCTATATACATTTACCTTTTAAGAGGAGGAAT | – | – | cleaved RNA product abundance [3]: 0.205 |
| ACAGACGAAGGAGCCGCAAAGAAGTTATTAAGGGATGAATAATCCCCCAATATAAATAACTCTCACTTATTTAAA | 0.347 | – | – |
| ACAGACGAAGGAGCCGCAAAGAAGATATTAAGGGATGAATAATCCCTCAATATAAAGATCTCTCACTTATTTAAA | 0.559 | – | – |
| ACAGACGAAGGAGCCGCAAAGAATTTATTAAGGGATGAATAATCCCTCAATATAAACATCTCTCACTTATTTAAA | 0.683 | 0.291 | – |
| ACAGACGAAGGAGCCGCAAAGAAGTTATTAAGGGATGAATTATTCCTCAATATAAATATCTCTCACTTATTTAAA | 0.215 | – | – |
| ACAGACGAAGGAGCCGCAAAGAAGTTATTAAAGGATGAATAATCCCTCAATATAAATCTCTCTCACTTATTTAAA | 0.208 | – | – |
| CGACATGTCCCGCTTCTTTCATTAATCCGTTAGCAACTGTTTTACTAAATACATTTACCTTTTAAGAGGAGGAAT | – | – | cleaved RNA product abundance [3]: 0.499 |
| CGACATGTCCCGCTTCTTTCATTAATCCGTTAGCAACTGTTTTTGCTATATACATTTACCTTTTAAGAGGAGGAA | – | – | cleaved RNA product abundance [3]: 0.946 |

| Sequence | cleaved RNA product abundance [1] | cleaved RNA product abundance [2] | other results |
| --- | --- | --- | --- |
| ACAGACGAAGGAGCCGCAAAGAAGTTATTAAGGAATGAATATTCCCTCAATATAAATATCTCTCACTTATTTAAA | 0.279 | 0.178 | – |
| CGACATGTCCCGCTTCTTTCATTAATCCTTTAGCAACTGTTTTGCTATATACATTTACCTTTTAAGAGGAGGAAT | – | – | cleaved RNA product abundance [3]: 0.612 |
| ACAGACGAAGGAGCCGCAAAGAAGTTATTAAGGGAAGAATAATCTCTCAATATAAATATCTCTCACTTATTTAAA | 0.201 | 0.124 | – |
| ACAGACGAAGGAGCCGCAAAGAAGTTATTAAGGGATGAATAATCCCGCATTATAAATATCTCTCACTTATTTAAA | 0.101 | – | – |
| ACAGACGAAGGAGCCGCAAAGAAGTTATTATGGGATGAATAATCCCTCCATATAAATATCTCTCACTTATTTAAA | – | 0.361 | – |
| CGACATGTCCCGCTTCTTTCATTAATCCGTTAGCAACTGTATTGCTATTTACATTTACCTTTTAAGAGGAGGAAT | – | – | cleaved RNA product abundance [3]: 0.202 |
| ACAGACGAAGGAGCCGCAAAGAAGTTATTAAGGTATGAATAATCCCTAAATATAAATATCTCTCACTTATTTAAA | 0.168 | 0.109 | – |
| CGACATGTCCCGCTTCTTTCATTAATCCGATAGCAACTTTTTTGCTATATACATTTACCTTTTAAGAGGAGGAAT | – | – | cleaved RNA product abundance [3]: 1.24 |
| ACAGACGAAGGAGCCGCAAAGAAGTTATTAATGGATGAATAATCCCACAATATAAATATCTCTCACTTATTTAAA | 0.156 | 0.0949 | – |
| ACAGACGAAGGAGCCGCCAAGAAGTTATTAAGGAATGAATAATCCCTCAATATAAATATCTCTCACTTATTTAAA | 0.107 | – | – |
| ACAGACGAAGGAGCCGCAAAGCAGTTAATAAGGGATGAATAATCCCTCAATATAAATATCTCTCACTTATTTAAA | 0.298 | – | – |
| ACAGACGAAGGAGCCGCAAAGAAGTTATTAAGTGATGAATAATCACTCAATATAAATAACTCTCACTTATTTAAA | 1.16 | – | – |
| CGACATGTCCCGCTTCTTTCATTAATCCGTTAGCTACTGTTTTGCAATATACATTTACCTTTTAAGAGGAGGAAT | – | – | cleaved RNA product abundance [3]: 0.187 |
| ACAGACGAAGGAGCCGCAAAGAAGTTATTAAGGGATGAACAATCCCTAAATATAAATATCTCTCACTTATTTAAA | 0.62 | 0.33 | – |
| ACAGACGAAGGAGCCGCAAAGAAGTTATTAAGTGATGAAGAATCCCTCAATATAAATATCTCTCACTTATTTAAA | 0.0723 | 0.0943 | – |
| ACAGACGAAGGAGCCGCAAAGAAGTTATTAAGGGATGAATAATCCCTCAGTATAAATATCTCTCACTTATTTAAA | 0.305 | 0.215 | cleaved RNA product abundance (experiment (reporter, strain, medium): exp 6: tetM reporter, strain 168, cleavage site: cggR-gapA (positions -7 to +36 mutated)): 0.259 |
| CGACATGTCCCGCTTCTTTCATTAATCCGTTAGCAACTGTTTTGCTATATACATTTCCTTTTTAAGAGGAGGAAT | – | – | cleaved RNA product abundance [3]: 0.345 |
| ACAGACGAAGGAGCCGCAAAGAAGTTATTAAGGGATGAATAATCTCTCAATATAAAAATCTCTCACTTATTTAAA | 0.43 | 0.464 | – |
| ACAGACGAAGGAGCCGCAAAGAAGTTATTAAGGTATGAATAATCCCTCAATATAAATATTTCTCACTTATTTAAA | 0.121 | – | – |
| ACAGACGAAGGAGCCGCAAAGAAGTTCTTAAGTGATGAATAATCCCTCAATATAAATATCTCTCACTTATTTAAA | 0.0965 | 0.0656 | – |

— the supplement of paper PMC11780869
